Source: publication doi:10.1101/2024.05.08.592561 (bioRxiv, 2024)

Tests used:
[1] = molecular target: T1, ParT (Streptomyces coelicolor A3(2), plasmid …, UniProt Q8VWE5 1-325); experiment: BLI
T1 sequence: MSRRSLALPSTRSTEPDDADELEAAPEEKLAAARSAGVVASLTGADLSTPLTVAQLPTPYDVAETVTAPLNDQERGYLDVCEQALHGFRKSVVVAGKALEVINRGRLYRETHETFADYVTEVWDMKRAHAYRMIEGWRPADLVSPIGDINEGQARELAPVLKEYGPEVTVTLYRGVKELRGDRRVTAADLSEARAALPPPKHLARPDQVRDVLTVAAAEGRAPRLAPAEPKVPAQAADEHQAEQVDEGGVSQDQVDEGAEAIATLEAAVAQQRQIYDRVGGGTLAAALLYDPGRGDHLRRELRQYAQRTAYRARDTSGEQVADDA

[2] = molecular target: the molecule itself; experiment: mass photometry

B1: 40-bp parS duplex (dsDNA)
DNA 1: GGCCGACCTCGTGTCTCCAATTGGAGACATCAACGAGGGC
DNA 2: GCCCTCGTTGATGTCTCCAATTGGAGACACGAGGTCGGCC
Binder B1 has a Kd [1] of 680 ± 200 nM.

B2: ParT-His6 (wild type) (natural protein)
chain: MSRRSLALPSTRSTEPDDADELEAAPEEKLAAARSAGVVASLTGADLSTPLTVAQLPTPYDVAETVTAPLNDQERGYLDVCEQALHGFRKSVVVAGKALEVINRGRLYRETHETFADYVTEVWDMKRAHAYRMIEGWRPADLVSPIGDINEGQARELAPVLKEYGPEVTVTLYRGVKELRGDRRVTAADLSEARAALPPPKHLARPDQVRDVLTVAAAEGRAPRLAPAEPKVPAQAADEHQAEQVDEGGVSQDQVDEGAEAIATLEAAVAQQRQIYDRVGGGTLAAALLYDPGRGDHLRRELRQYAQRTAYRARDTSGEQVADDA
In the case of B2, the “stoichiometry N” value [2] is reported as 2.

B3: 40-bp scrambled parS duplex (dsDNA)
DNA 1: ATCGGGCACCTTAGGGCAATCGTAAGTTCGGCGCACGACC
DNA 2: GGTCGTGCGCCGAACTTACGATTGCCCTAAGGTGCCCGAT
B3: no binding [1].
